The target in the assay is GPCMV gB (glycoprotein B of Guinea Pig CMV strain V545/82) (guinea pig CMV (GPCMV)). Briefly: cell-based or functional assay.

We go through one substance from US20120263734A1.

For ITC88 control antibody, the neutralization of GPCMV V545/82 entry into JH4 cells (highest concentration tested, no effect) was more than 300 µg/mL.
